Source: article doi:10.1101/2022.10.06.511153 (bioRxiv, 2022)

Experiments:
[1] = target: MksE (Corynebacterium glutamicum) (UniProt Q8NLY1); experiment: BLI
[2] = target: MksB (Corynebacterium glutamicum) (UniProt Q8NLY2); experiment: BLI
crystal structure = target: the molecule itself; experiment: crystal structure

MksF (from UniProt Q8NLY0 1-495) (natural protein)
Kd [1]: 2.17 µM | Kd [2]: 4.94 µM

B1: MksG (6xHis-SUMO construct for crystallization) (natural protein, Corynebacterium glutamicum)
chain: MPLFIDDALHRSKKYFHAHLSELLLGEFAGLSLPLHPPTAAKAAADIDATREFIRQWEGRDDVEYAIRNWSPVGLGKTEVPVRLTLNTTEELVVFAQVEDEWSSLHERFSQLSGFTAEVVAKHVSLWRSLSNDDLSKAVLVVDWFLKHPNSGLLKRAVAVEGVHTKWLENHRVLIETLVADKRGEPGRADLGLGDAEARVRLRFHSVDAPAGLTDIEVPLSNLCELQEPQVILMVENLDSFLALPTWPGVTIAWGAGYRAVDIVRGPYFSNGRLLYWGDLDLDGFKILDGVRSHVPHTESVLMNSETVSRWRYLGVADREFKAESFDNLHDFESDALDLLITDGELRIEQERIRLDVAVEEIEKVIRG
stoichiometry N (crystal structure): 2
